Data reported in US20230357429A1 (JANUX THERAPEUTICS, published 2023).
Where two headings read alike, the source gives them in different places. Blank lines part the entries; values can stand above or below the binder they belong to. Where no end group is shown, it is not given here.

Key:
[1] = biological target: T1, Human TROP2 ECD (31-274 AA), biotinylated (human, UniProt P09758 31-274, biotinylated (site not stated)); test: ELISA on immobilized TROP2
T1 construct: also called tumor-associated calcium signal transducer 2; Human TROP2-biotin
T1 sequence: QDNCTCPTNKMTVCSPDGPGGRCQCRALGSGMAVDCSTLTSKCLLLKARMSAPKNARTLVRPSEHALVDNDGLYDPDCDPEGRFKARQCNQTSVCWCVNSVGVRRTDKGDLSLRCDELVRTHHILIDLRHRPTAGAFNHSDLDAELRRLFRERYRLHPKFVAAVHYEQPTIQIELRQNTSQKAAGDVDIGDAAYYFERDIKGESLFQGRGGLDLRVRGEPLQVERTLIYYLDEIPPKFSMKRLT

[2] = biological target: T1, Human TROP2 ECD (31-274 AA), …; test: ELISA on immobilized TROP2; remark: listed apart in the source
[3] = biological target: T2, TBD-21 (HC F108A); test: competition ELISA, peptide vs Fab binding to captured biotin-TROP2
T2 construct: Fab; also called HC F108A mutant

[4] = biological target: T3, TBD-6 (LC I93A); test: as above
T3 construct: Fab; also called LC I93A mutant

[5] = biological target: T4, TBD-11 (HC R98A); test: as above
T4 construct: Fab; also called HC R98A mutant

[6] = biological target: T5, TBD-22 (HC D109A); test: as above
T5 construct: Fab; also called HC D109A mutant

[7] = biological target: T6, TBD-17 (HC S104A); test: as above
T6 construct: Fab; also called HC S104A mutant

[8] = biological target: T7, TBD-1 wt; test: as above
T7 construct: Fab; the heavy chain entry is VH-CH1; also called wild-type anti-TROP2 Fab (hRS7); TROP2 Fab

[9] = biological target: T2, TBD-21 (HC F108A); test: as above; remark: listed apart in the source
[10] = biological target: T3, TBD-6 (LC I93A); test: as above; remark: listed apart in the source
[11] = biological target: T4, TBD-11 (HC R98A); test: as above; remark: listed apart in the source
[12] = biological target: T5, TBD-22 (HC D109A); test: as above; remark: listed apart in the source
[13] = biological target: T6, TBD-17 (HC S104A); test: as above; remark: listed apart in the source
[14] = biological target: T7, TBD-1 wt; test: as above; remark: listed apart in the source
[15] = biological target: T8, TCE-20 (anti-CD3 scFv S110A; anti-TROP2 wt); test: competition ELISA, TCE on captured CD3
T8 construct: scFv on the Fab heavy chain; also called TCE-20 (S110A)

[16] = biological target: T9, TCE-13 (anti-CD3 scFv N103A; anti-TROP2 wt); test: competition ELISA, TCE on captured CD3
T9 construct: scFv on the Fab heavy chain; also called TCE-13 (N103A)

[17] = biological target: T10, TCE-14 (anti-CD3 scFv F104A; anti-TROP2 wt); test: competition ELISA, TCE on captured CD3
T10 construct: scFv on the Fab heavy chain; also called TCE-14 (F104A)

[18] = biological target: T11, TCE-11 (anti-CD3 scFv H101A; anti-TROP2 wt); test: competition ELISA, TCE on captured CD3
T11 construct: scFv on the Fab heavy chain; also called TCE-11 (H101A)

[19] = biological target: T12, TCE-10 (anti-CD3 scFv R100A; anti-TROP2 wt); test: competition ELISA, TCE on captured CD3
T12 construct: scFv on the Fab heavy chain; also called TCE-10 (R100A)

[20] = biological target: T13, TCE-33 (anti-CD3 scFv F240A; anti-TROP2 wt); test: competition ELISA, TCE on captured CD3
T13 construct: scFv on the Fab heavy chain; also called TCE-33 (F240A)

[21] = biological target: T14, TCE-1 (anti-CD3 scFv wt; anti-TROP2 Fab wt); test: competition ELISA: peptide titrated and pre-incubated with a constant concentration of TCE-1, binding of TCE-1 to plate-bound biotinylated CD3 detected
T14 construct: anti-CD3 scFv fused to the N-terminus of the anti-TROP2 Fab heavy chain; also called TCE-1 (wt)

B2: PC-12 (bispecific antibody)
light: GGVDFCGLYHWPICYQGGGGSGGLSGRSDAGSPLGLAGSGGSDIQLTQSPSSLSASVGDRVSITCKASQDVSIAVAWYQQKPGKAPKLLIYSASYRYTGVPDRFSGSGSGTDFTLTISSLQPEDFAVYYCQQHYITPLTFGAGTKVEIKRTVAAPSVFIFPPSDEQLKSGTASVVCLLNNFYPREAKVQWKVDNALQSGNSQESVTEQDSKDSTYSLSSTLTLSKADYEKHKVYACEVTHQGLSSPVTKSFNRGEC
heavy: not shown
notes: anti-TROP2 R98A
- EC50 [1]: 352 nM

B4: PC-20 (bispecific antibody)
light: GGVDFCALYHWPICYQGGGGSGGLSGRSDAGSPLGLAGSGGSDIQLTQSPSSLSASVGDRVSITCKASQDVSIAVAWYQQKPGKAPKLLIYSASYRYTGVPDRFSGSGSGTDFTLTISSLQPEDFAVYYCQQHYITPLTFGAGTKVEIKRTVAAPSVFIFPPSDEQLKSGTASVVCLLNNFYPREAKVQWKVDNALQSGNSQESVTEQDSKDSTYSLSSTLTLSKADYEKHKVYACEVTHQGLSSPVTKSFNRGEC
heavy: not shown
notes: anti-TROP2 D109A
- EC50 [2]: 74.3 nM

B6: PC-14 (bispecific antibody)
light: GGVDFCGLYHWPICYQGGGGSGGLSGRSDAGSPLGLAGSGGSDIQLTQSPSSLSASVGDRVSITCKASQDVSIAVAWYQQKPGKAPKLLIYSASYRYTGVPDRFSGSGSGTDFTLTISSLQPEDFAVYYCQQHYITPLTFGAGTKVEIKRTVAAPSVFIFPPSDEQLKSGTASVVCLLNNFYPREAKVQWKVDNALQSGNSQESVTEQDSKDSTYSLSSTLTLSKADYEKHKVYACEVTHQGLSSPVTKSFNRGEC
heavy: not shown
notes: anti-TROP2 F108A
- EC50 [1]: 333 nM

B7: PC-24 (bispecific antibody)
light: GGVDFCGLYHWPICYQVGGGSGGLSGRSDAGSPLGLAGSGGSDIQLTQSPSSLSASVGDRVSITCKASQDVSIAVAWYQQKPGKAPKLLIYSASYRYTGVPDRFSGSGSGTDFTLTISSLQPEDFAVYYCQQHYITPLTFGAGTKVEIKRTVAAPSVFIFPPSDEQLKSGTASVVCLLNNFYPREAKVQWKVDNALQSGNSQESVTEQDSKDSTYSLSSTLTLSKADYEKHKVYACEVTHQGLSSPVTKSFNRGEC
heavy: not shown
notes: anti-TROP2 D109A
- EC50 [2]: 87.5 nM

B9: TCE-6 (bispecific antibody)
light: DIQLTQSPSSLSASVGDRVSITCKASQDVSIAVAWYQQKPGKAPKLLIYSASYRYTGVPDRFSGSGSGTDFTLTISSLQPEDFAVYYCQQHYITPLTFGAGTKVEIKRTVAAPSVFIFPPSDEQLKSGTASVVCLLNNFYPREAKVQWKVDNALQSGNSQESVTEQDSKDSTYSLSSTLTLSKADYEKHKVYACEVTHQGLSSPVTKSFNRGEC
heavy: not shown
- EC50 [2]: 0.37 nM
- EC50 [1]: 0.46 nM

Binder: VDFCYLYSWPICTK (cysteine pairing not given here; also: biotinylated, site not given here) [Peptide-40]
- IC50 [3]: 10000 nM
- IC50 [4]: 2280 nM
- IC50 [5]: 14600 nM
- IC50 [6]: 580 nM
- IC50 [7]: 7260 nM
- IC50 [8]: 3630 nM

More lines, now with the values ahead:

- EC50 [1]: 3.18 nM
B1: TCE-3 (bispecific antibody)
light: not shown
heavy: QVQLQQSGSELKKPGASVKVSCKASGYTFTNYGMNWVKQAPGQGLKWMGWINTYTGEPTYTDDFKGRFAFSLDTSVSTAYLQISSLKADDTAVYFCAAGGFGSSYWYFDVWGQGSLVTVSSASTKGPSVFPLAPSSKSTSGGTAALGCLVKDYFPEPVTVSWNSGALTSGVHTFPAVLQSSGLYSLSSVVTVPSSSLGTQTYICNVNHKPSNTKVDKKVEPKSC

- EC50 [2]: 142 nM
B3: PC-22 (bispecific antibody)
light: GGVDFCGLYHWPICYQVGGGSGGLSGRSDAGSPLGLAGSGGSDIQLTQSPSSLSASVGDRVSITCKASQDVSIAVAWYQQKPGKAPKLLIYSASYRYTGVPDRFSGSGSGTDFTLTISSLQPEDFAVYYCQQHYITPLTFGAGTKVEIKRTVAAPSVFIFPPSDEQLKSGTASVVCLLNNFYPREAKVQWKVDNALQSGNSQESVTEQDSKDSTYSLSSTLTLSKADYEKHKVYACEVTHQGLSSPVTKSFNRGEC
heavy: not shown
notes: anti-TROP2 R98A

- EC50 [2]: 69.8 nM
B5: PC-16 (bispecific antibody)
light: GGIDFCAIYQWPVCRSGGGGSGGLSGRSDAGSPLGLAGSGGSDIQLTQSPSSLSASVGDRVSITCKASQDVSIAVAWYQQKPGKAPKLLIYSASYRYTGVPDRFSGSGSGTDFTLTISSLQPEDFAVYYCQQHYITPLTFGAGTKVEIKRTVAAPSVFIFPPSDEQLKSGTASVVCLLNNFYPREAKVQWKVDNALQSGNSQESVTEQDSKDSTYSLSSTLTLSKADYEKHKVYACEVTHQGLSSPVTKSFNRGEC
heavy: not shown
notes: anti-TROP2 D109A

- EC50 [2]: 54.3 nM
B8: PC-26 (bispecific antibody)
light: GGVDFCAIYSWPICKIGGGGSGGLSGRSDAGSPLGLAGSGGSDIQLTQSPSSLSASVGDRVSITCKASQDVSIAVAWYQQKPGKAPKLLIYSASYRYTGVPDRFSGSGSGTDFTLTISSLQPEDFAVYYCQQHYITPLTFGAGTKVEIKRTVAAPSVFIFPPSDEQLKSGTASVVCLLNNFYPREAKVQWKVDNALQSGNSQESVTEQDSKDSTYSLSSTLTLSKADYEKHKVYACEVTHQGLSSPVTKSFNRGEC
heavy: not shown
notes: anti-TROP2 D109A

- IC50 [3]: 2000 nM
- IC50 [4]: 530 nM
- IC50 [5]: 2720 nM
- IC50 [6]: 120 nM
- IC50 [7]: 1480 nM
- IC50 [8]: 430 nM
- IC50 [9]: 2640 nM
- IC50 [10]: 370 nM
- IC50 [11]: 1480 nM
- IC50 [12]: 90 nM
- IC50 [13]: 1010 nM
- IC50 [14]: 340 nM
Binder: IDFCMLYNWPICAG (cysteine pairing not given here; also: biotinylated, site not given here) [Peptide-3]

- IC50 [3]: 6730 nM
- IC50 [4]: 1280 nM
- IC50 [5]: 18000 nM
- IC50 [6]: 290 nM
- IC50 [7]: 3750 nM
- IC50 [8]: 3030 nM
- IC50 [9]: 6450 nM
- IC50 [10]: 1030 nM
- IC50 [11]: 8100 nM
- IC50 [12]: 140 nM
- IC50 [13]: 3040 nM
- IC50 [14]: 2580 nM
Binder: VDFCKIYSWPVCHQ (cysteine pairing not given here; also: biotinylated (site not given here)) [Peptide-25]

- IC50 [15]: 120000 nM
- IC50 [16]: 47700 nM
- IC50 [17]: 4210 nM
- IC50 [18]: 2080 nM
- IC50 [19]: 4740 nM
- IC50 [20]: 7460 nM
- binding result [21]: binds
Binder: GSACLGPEWEVCPY (cysteine pairing not given here; also: biotinylated, site not given here, mask peptide for the CD3 scFv) [Peptide-75]

- EC50 [1]: 363 nM
B10: PC-15 (bispecific antibody)
light: not shown
heavy: GGVDFCGLYHWPICYQGGGGSGGLSGRSDAGSPLGLAGSGGSQVQLQQSGSELKKPGASVKVSCKASGYTFTNYGMNWVKQAPGQGLKWMGWINTYTGEPTYTDDFKGRFAFSLDTSVSTAYLQISSLKADDTAVYFCARGGFGSSYWYADVWGQGSLVTVSSASTKGPSVFPLAPSSKSTSGGTAALGCLVKDYFPEPVTVSWNSGALTSGVHTFPAVLQSSGLYSLSSVVTVPSSSLGTQTYICNVNHKPSNTKVDKKVEPKSC
notes: anti-TROP2 F108A
